We go through 1 molecule from patent US20190112361A1 (Genentech, published 2019).

The test deals with T1, full-length human Tau (flTau) (human, UniProt P10636-8 1-441).
T1 construct: also called human Tau, longest isoform (441 aa)
Briefly: direct ELISA, flTau coated at 1 µg/mL, hybridoma supernatant dilutions. From the text: Serum-free supernatants were harvested from stable hybridomas. The supernatants containing antibodies of interest were then screened by ELISA assays to characterize antibody properties and select antibodies for further development. The ELISA assays were used to determine the following: binding to full-length human Tau (flTau; SignalChem, Canada), binding to hyperphosphorylated flTau (Genentech, USA), binding to oligomeric versus monomeric preparations of flTau, and binding to certain antibody Tau epitope(s).
Coating was done overnight in phosphate-buffered saline (PBS) at 4° C. Plates were washed thoroughly with 0.05% Tween-20/PBS and then blocked with 1% bovine serum albumin (BSA) in 0.05% Tween-20/PBS for 1 hr at 37° C. The antibody contained in the hybridoma supernatant was then added at the indicated dilutions, and incubated for 2 hrs at 37° C. after which the plates were washed as described previously.
For the direct ELISAs, an AP-conjugated anti-mouse IgG secondary antibody (Jackson ImmunoResearch Laboratories, United Kingdom) was added at 1/6000 dilution in 0.05% Tween-20/PBS for 2 hr at 37° C. After the final wash, plates were incubated with p-nitrophenyl phosphate disodium hexahydrate (pNPP; Sigma-Aldrich, Switzerland) phosphatase substrate solution, and read at 405 nm using an ELISA plate reader (Tecan, Switzerland). Results are expressed as optical densities (O.D.).

T1 sequence (P10636 other isoform, or with tags, fused parts or gaps limits assumed): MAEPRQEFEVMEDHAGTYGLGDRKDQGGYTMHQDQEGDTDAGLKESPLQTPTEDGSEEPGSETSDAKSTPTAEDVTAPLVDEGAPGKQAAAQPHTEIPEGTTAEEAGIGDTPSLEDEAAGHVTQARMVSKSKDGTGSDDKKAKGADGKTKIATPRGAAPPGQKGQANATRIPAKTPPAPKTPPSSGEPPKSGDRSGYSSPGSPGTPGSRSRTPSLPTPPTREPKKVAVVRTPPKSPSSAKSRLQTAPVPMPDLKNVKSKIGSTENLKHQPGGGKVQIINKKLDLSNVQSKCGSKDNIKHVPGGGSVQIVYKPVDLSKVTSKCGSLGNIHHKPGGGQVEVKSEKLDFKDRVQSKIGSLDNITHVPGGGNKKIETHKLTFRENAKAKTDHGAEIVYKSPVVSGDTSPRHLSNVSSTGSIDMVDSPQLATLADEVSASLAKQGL

B1: 12A10-E8 (antibody, V domains shown)
VH: QIQLVQSGPELKKPGETVKISCKASGYTFTNYGMNWVKQAPGKGLKWMGWINMYTGEPTYGDDFKGRFVFSLETSVSTVYLQINNLKKEDTATFFCARGGRPDYWGQGTSVTVSS
VL: DVLMTQTPLSLPVSLGDQASISCRSSQSIVHSNGNTYLEWYLQKPGQSPKLLIYKVFNRFSGVPDRFSGSGSGTDFTLKINRVEAEDLGVYYCLQGSHVPYTFGGGTKLEIK
notes: hybridoma supernatant
With B1, the binding result is “binds”.
